Biological target: T1, CRP (cAMP receptor protein, CAP) (Escherichia coli) (UniProt P0ACJ8)
T1 sequence: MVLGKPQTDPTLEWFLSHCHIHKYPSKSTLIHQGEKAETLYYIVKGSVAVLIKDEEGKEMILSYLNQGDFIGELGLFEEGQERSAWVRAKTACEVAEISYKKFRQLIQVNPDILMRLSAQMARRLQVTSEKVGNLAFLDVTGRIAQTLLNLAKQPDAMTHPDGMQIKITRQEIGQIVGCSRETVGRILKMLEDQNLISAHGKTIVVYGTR
Assay: EMSA

Sequence | binding
CCAGGTTTCCCAGCACTTTTAATCTGGCGGTTAATGCGACTCCGGCATCCGGTGAAACATCCGGTAAAGGATGCAATACGCCGTCGATACGCAAGCGGATGCGGTAGGC (double strand) [hofB coding fragment] | no binding
GCACGACAGGTTTCCCGACTGGAAAGCGGGCAGTGAGCGCAACGCAATTAATGTGAGTTAGCTCACTCATTAGGCACCCCAGGCTTTACACTTTATGCTTCCGGCTCGTATGTTGTGTGGAATTGTG (double strand) [lacZ promoter fragment] | binds
